The series addresses RPA heterotrimer (RPA70/RPA32/RPA14) (Homo sapiens) (UniProt P27694+P15927+P35244). Nature of the series: EMSA.

Sequence of RPA heterotrimer (RPA70/RPA32/RPA14) (Homo sapiens) (P27694 whole entry, chain 1 of 3): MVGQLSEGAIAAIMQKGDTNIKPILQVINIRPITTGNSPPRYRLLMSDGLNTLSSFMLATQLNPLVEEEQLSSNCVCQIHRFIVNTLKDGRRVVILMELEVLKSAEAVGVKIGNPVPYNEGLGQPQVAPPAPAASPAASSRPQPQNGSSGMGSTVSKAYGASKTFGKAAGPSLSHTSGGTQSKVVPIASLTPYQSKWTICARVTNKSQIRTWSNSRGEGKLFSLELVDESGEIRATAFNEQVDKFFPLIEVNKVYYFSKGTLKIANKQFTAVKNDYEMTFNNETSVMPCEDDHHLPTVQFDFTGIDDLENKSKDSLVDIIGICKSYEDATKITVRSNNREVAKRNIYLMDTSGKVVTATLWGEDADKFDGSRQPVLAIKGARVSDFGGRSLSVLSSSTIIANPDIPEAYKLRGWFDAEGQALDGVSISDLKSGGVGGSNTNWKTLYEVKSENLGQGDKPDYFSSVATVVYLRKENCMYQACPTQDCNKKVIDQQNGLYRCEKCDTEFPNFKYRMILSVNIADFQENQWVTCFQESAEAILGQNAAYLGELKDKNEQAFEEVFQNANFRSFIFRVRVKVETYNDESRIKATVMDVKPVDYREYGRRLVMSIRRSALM
Sequence of RPA heterotrimer (RPA70/RPA32/RPA14) (Homo sapiens) (P15927 whole entry, chain 2 of 3): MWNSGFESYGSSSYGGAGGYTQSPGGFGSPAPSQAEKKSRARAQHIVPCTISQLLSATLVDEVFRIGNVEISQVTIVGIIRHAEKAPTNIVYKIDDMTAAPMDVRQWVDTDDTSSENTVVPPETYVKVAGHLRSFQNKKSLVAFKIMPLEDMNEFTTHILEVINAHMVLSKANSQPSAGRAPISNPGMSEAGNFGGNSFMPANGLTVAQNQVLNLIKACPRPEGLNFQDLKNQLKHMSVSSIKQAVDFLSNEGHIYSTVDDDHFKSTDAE
Sequence of RPA heterotrimer (RPA70/RPA32/RPA14) (Homo sapiens) (P35244 whole entry, chain 3 of 3): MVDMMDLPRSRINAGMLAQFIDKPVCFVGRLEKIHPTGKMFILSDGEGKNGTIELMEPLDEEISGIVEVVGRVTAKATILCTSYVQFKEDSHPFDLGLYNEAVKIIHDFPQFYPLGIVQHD

Take “TTTTTTTTTTTTTTTTTTTTTTTTTTTTTTTTTTTTTTTTGGTCGGAGTTAGAGTAGGGTCGGAGTTAGAGTAGCCAGTA [S8 (80-mer)]”: the binding signal (fold vs RPA alone) amounted to 2.

For the origin of these results see paper PMC5389570.
